Target: T1, Fc (human, UniProt P01857-1 104-330 = IgG part, limits assumed)
T1 construct: domain: Fc (hinge-CH2-CH3); Control without TPP; also called control group Fc; antibody heavy-chain constant region
Test: FACS on cells carrying neuropilin-1 and -2

binding result: no binding (tested: 1 µM)
B1: neuropilin-2 expressed on cell surface (receptor, human, UniProt O60462 21-931, looked up)
chain: RGQPDPPCGGRLNSKDAGYITSPGYPQDYPSHQNCEWIVYAPEPNQKIVLNFNPHFEIEKHDCKYDFIEIRDGDSESADLLGKHCGNIAPPTIISSGSMLYIKFTSDYARQGAGFSLRYEIFKTGSEDCSKNFTSPNGTIESPGFPEKYPHNLDCTFTILAKPKMEIILQFLIFDLEHDPLQVGEGDCKYDWLDIWDGIPHVGPLIGKYCGTKTPSELRSSTGILSLTFHTDMAVAKDGFSARYYLVHQEPLENFQCNVPLGMESGRIANEQISASSTYSDGRWTPQQSRLHGDDNGWTPNLDSNKEYLQVDLRFLTMLTAIATQGAISRETQNGYYVKSYKLEVSTNGEDWMVYRHGKNHKVFQANNDATEVVLNKLHAPLLTRFVRIRPQTWHSGIALRLELFGCRVTDAPCSNMLGMLSGLIADSQISASSTQEYLWSPSAARLVSSRSGWFPRIPQAQPGEEWLQVDLGTPKTVKGVIIQGARGGDSITAVEARAFVRKFKVSYSLNGKDWEYIQDPRTQQPKLFEGNMHYDTPDIRRFDPIPAQYVRVYPERWSPAGIGMRLEVLGCDWTDSKPTVETLGPTVKSEETTTPYPTEEEATECGENCSFEDDKDLQLPSGFNCNFDFLEEPCGWMYDHAKWLRTTWASSSSPNDRTFPDDRNFLRLQSDSQREGQYARLISPPVHLPRSPVCMEFQYQATGGRGVALQVVREASQESKLLWVIREDQGGEWKHGRIILPSYDMEYQIVFEGVIGKGRSGEIAIDDIRISTDVPLENCMEPISAFAGENFKVDIPEIHEREGYEDEIDDEYEVDWSNSSSATSGSGAPSTDKEKSWLYTLDPILITIIAMSSLGVLLGATCAGLLLYCTCSYSGLSSRSCTTLENYNFELYDGLKHKVKMNHQKCCSEA
notes: whole, on cells; Endogenous expression; the same cells also carry neuropilin-1; also called NRP2

Reference: patent US20160130315A1 (AJOU UNIVERSITY INDUSTRY ACADEMIC COOPERATION FOUNDATION, published 2016)
